# Laboratory results from patent publication US20060168698.
# T1: SOS1 (Salt Overly Sensitive 1, plasma membrane Na+/H+ antiporter), Q9LKW9
# T1 chain: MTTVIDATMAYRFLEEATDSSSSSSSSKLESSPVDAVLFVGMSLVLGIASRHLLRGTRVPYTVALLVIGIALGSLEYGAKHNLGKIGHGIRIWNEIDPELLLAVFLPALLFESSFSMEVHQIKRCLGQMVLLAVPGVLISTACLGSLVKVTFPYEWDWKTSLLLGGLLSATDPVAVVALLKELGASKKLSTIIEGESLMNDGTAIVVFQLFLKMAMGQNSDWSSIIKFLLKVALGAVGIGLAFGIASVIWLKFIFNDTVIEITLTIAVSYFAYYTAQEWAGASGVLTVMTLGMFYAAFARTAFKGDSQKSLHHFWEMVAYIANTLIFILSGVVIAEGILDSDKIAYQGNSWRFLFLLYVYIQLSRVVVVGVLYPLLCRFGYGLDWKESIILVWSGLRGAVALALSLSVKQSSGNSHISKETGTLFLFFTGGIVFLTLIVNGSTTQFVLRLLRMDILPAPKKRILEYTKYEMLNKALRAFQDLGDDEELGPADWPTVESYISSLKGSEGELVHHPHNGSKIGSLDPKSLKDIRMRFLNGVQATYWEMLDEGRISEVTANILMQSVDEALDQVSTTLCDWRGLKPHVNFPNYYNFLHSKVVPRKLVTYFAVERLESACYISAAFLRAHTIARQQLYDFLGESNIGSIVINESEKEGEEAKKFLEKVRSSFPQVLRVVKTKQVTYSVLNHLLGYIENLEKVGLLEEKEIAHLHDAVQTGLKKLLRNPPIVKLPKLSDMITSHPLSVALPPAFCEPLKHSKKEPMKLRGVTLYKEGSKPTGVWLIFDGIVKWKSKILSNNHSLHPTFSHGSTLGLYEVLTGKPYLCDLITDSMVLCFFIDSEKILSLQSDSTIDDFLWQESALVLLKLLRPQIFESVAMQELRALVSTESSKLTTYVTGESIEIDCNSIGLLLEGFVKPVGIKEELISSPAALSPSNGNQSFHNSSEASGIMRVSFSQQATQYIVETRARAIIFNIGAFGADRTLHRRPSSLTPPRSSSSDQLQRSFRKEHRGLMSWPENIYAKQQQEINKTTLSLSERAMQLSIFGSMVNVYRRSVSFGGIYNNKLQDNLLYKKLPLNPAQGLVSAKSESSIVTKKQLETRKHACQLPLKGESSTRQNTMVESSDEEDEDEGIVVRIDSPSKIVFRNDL
# Molecular target: T1, SOS1 (Salt Overly Sensitive 1, plasma …)
protein,measurement,value
T/DSOS2 (SOS2 protein kinase with the Thr168-to-Asp change in the activation loop) (protein) MTKKMRRVGKYEVGRTIGEGTFAKVKFARNTDTGDNVAIKIMAKSTILKNRMVDQIKREISIMKIVRHPNIVRLYEVLASPSKIYIVLEFVTGGELFDRIVHKGRLEESESRKYFQQLVDAVAHCHCKGVYHRDLKPENLLLDTNGNLKVSDFGLSALPQEGVELLRDTCGTPNYVAPEVLSGQGYDGSAADIWSCGVILFVILAGYLPFSETDLPGLYRKINAAEFSCPPWFSAEVKFLIHRILDPNPKTRIQIQGIKKDPWFRLNYVPIRAREEEEVNLDDIRAVFDGIEGSYVAENVERNDEGPLMMNAFEMITLSQGLNLSALFDRRQDFVKRQTRFVSRREPSEIIANIEAVANSMGFKSHTRNFKTRLEGLSSIKAGQLAVVIEIYEVAPSLFMVDVRKAAGETLEYHKFYKKLCSKLENIIWRATEGIPKSEILRTITF,"plasma membrane Na+/H+-exchange activity, maximum stimulation relative to activity without added protein (100 mM NaCl)",A maximum stimulation of activity of 40% relative to activity without added protein
